# Source: article PMC139967
# Molecular target: T701-Myo1c (neck-tail fragment of bullfrog myosin-1c, amino acids 701-1028) (bullfrog) (UniProt Q92002)
# Experiment: SDS-PAGE gel scanning
# Chain of T701-Myo1c (neck-tail fragment of bullfrog myosin-1c, amino acids 701-1028) (bullfrog) (Q92002 701-1028): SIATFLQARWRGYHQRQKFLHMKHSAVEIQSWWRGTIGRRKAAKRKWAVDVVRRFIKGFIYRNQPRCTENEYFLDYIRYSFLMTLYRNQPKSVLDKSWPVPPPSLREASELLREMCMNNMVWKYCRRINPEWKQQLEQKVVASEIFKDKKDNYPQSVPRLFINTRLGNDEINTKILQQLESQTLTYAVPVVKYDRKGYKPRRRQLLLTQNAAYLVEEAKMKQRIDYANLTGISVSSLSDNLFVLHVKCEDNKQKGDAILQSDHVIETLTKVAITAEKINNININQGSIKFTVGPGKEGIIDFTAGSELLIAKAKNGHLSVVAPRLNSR
substance,measurement,value
Xenopus calmodulin (from UniProt P0DP33 1-149) (natural protein),stoichiometry N (calmodulins per T701-Myo1c),2.6
